Blank lines part the entries; values can stand above or below the binder they belong to.
Assays:
[1] = target: T1, synthetic amyloid-like fibrils of recombinant amyloidogenic λ6 variable domain protein (rVλ6Wil); experiment: pulldown, labelled antibody
T1 construct: domain: λ6 variable domain; Fibrillar aggregate of many copies; also called rVλ6Wil fibrils; rVλ6Wil synthetic fibrils

[2] = target: T2, Per125 wtATTR amyloid extract (human, UniProt P02766 21-147); experiment: pulldown, labelled antibody
[3] = target: Per253 wild type (wt) ATTR amyloid extract (human, UniProt P02766 21-147); experiment: pulldown, labelled antibody
[4] = target: T3, SHI ALλ liver amyloid extract; experiment: pulldown, labelled antibody
T3 construct: Tissue amyloid extract; also called SHI AL liver extract; ALλ SHI extract

[5] = target: T4, TAL ALκ liver amyloid extract; experiment: pulldown, labelled antibody
T4 construct: Tissue amyloid extract; also called ALκTAL extract

[6] = target: T5, HIG ALκ1 amyloid extract; experiment: pulldown, labelled antibody
T5 construct: Tissue amyloid extract; also called ALκ HIG extract

[7] = target: T6, TYL ALλ amyloid extract; experiment: pulldown, labelled antibody
T6 construct: Tissue amyloid extract; also called ALλ TYL extract

[8] = target: T1, synthetic amyloid-like fibrils of …; experiment: pulldown, 125I-labelled antibody
[9] = target: T1, synthetic amyloid-like fibrils of …; experiment: EuLISA, substrate coated on plate
Method: (§1) To perform europium-linked immunosorbent assays (EuLISAs), suspensions of rVλ6Wil fibrils (sonicated) were prepared at 0.83 μM in phosphate buffered saline (PBS). The fibrils were coated onto the wells of a 96-well microplate by adding 50 μL to each well. The plates dried at 37° C. overnight. The wells of the microplate were blocked by addition of Superblock (Thermofisher) (SB) using 200 µL/well, and left at 37° C. for 1 hour. The primary (test) antibody (i.e., the humanized antibody) were added, prepared in SB+0.05% tween 20 (SBT) in a 1:2 dilution series starting at 1 μM using 100 µL/well. Plates were then incubated for 1 hour at 37° C. After a wash step (plates were washed three times using PBS+0.05% tween 20), secondary antibody was added as a 1:3000 dilution of biotinylated goat anti-human IgG (Sigma) in SBT at 100 µL/well. The plates were incubated for 1 hour at 37° C. After another wash step, 100 µL/well of a 1:1000 dilution of europium/streptavidin (Perkin Elmer) in SBT was added. The plates were incubated for 1 hour at 37° C. After a final wash step, 100 μL/well of europium enhancement solution (Perkin Elmer) was added. Time-resolved fluorescence emission was detected using a microplate reader (Wallac).
(§2) Table 8, below, provides the results of the ELISAs measuring the ability of mIgp5, hIgG1, c11-1F4, m11-1F4, VH6/VL3-p5, VH9/VL4-p5, and VH9/VL4-p5R to bind rVλ6Wil fibrils, Per125 wtATTR extract, KEN hATTR extract, SHI ALλ liver extract, and TAL ALκliver extract. For each combination of antibody and substrate, the Log-transformed EC₅₀, EC₅₀, and maximal level of binding in the assay is shown. Conditions labeled “na” were not tested.

[10] = target: T2, Per125 wtATTR amyloid extract; experiment: EuLISA, substrate coated on plate
Method: as §1, §2

[11] = target: T3, SHI ALλ liver amyloid extract; experiment: EuLISA, substrate coated on plate
Method: as §1, §2

[12] = target: T4, TAL ALκ liver amyloid extract; experiment: EuLISA, substrate coated on plate
Method: as §1, §2

[13] = target: T7, Aβ(1-40) amyloid-like fibrils (UniProt P05067 672-711); experiment: pulldown, labelled antibody
T7 construct: domain: Aβ(1-40); Fibrillar aggregate; The numbers 1-40 count on Aβ, not on the precursor; also called Aβ(1-40) fibrils

[14] = target: T8, hIAPP fibril (UniProt P10997 34-70); experiment: pulldown, labelled antibody
T8 construct: Fibrillar aggregate
T8 chain (looked up): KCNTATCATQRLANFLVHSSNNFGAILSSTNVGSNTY

[15] = target: T1, synthetic amyloid-like fibrils of …; experiment: EuLISA, fibrils coated on plate (FIG. 13B)
[16] = target: T9, Vκ4Len(1-22) monomer peptide (Homo sapiens (Human), UniProt P06312 21-42); experiment: pulldown, labelled antibody, peptide on beads
T9 construct: Free peptide as analyte in SPR; also called Vκ4(LEN(1-22) beads)
T9 peptide: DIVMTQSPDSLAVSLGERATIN

[17] = target: T10, Per125 wtATTR amyloid extract (human, UniProt P02766 21-147); experiment: EuLISA, extract coated on plate
[18] = target: T10, Per125 wtATTR amyloid extract; experiment: pulldown, labelled antibody; remark: listed apart in the source
[19] = target: T10, Per125 wtATTR amyloid extract; experiment: EuLISA, substrate coated on plate; remark: listed apart in the source
Method: as §1, §2

[20] = target: T9, Vκ4Len(1-22) monomer peptide; experiment: SPR Biacore 8K, antibody immobilised, peptide as analyte
Method: The affinity of humanized anti-amyloid antibodies binding to Vκ4Len(1-22) (“Len(1-22) monomer”) monomer peptide—the natural ligand for the m11-1F4 antibody—was measured using a Biacore 8K surface plasmon resonance (SPR) system. Parental antibody m11-1F4 binds to an epitope present at the N-terminal of denatured kappa 4 light chain proteins. The Len (1-22) monomer is a peptide comprising this epitope, as described in International Application No. PCT/US2017/015905. Binding affinities of anti-amyloid antibodies incorporating the humanized heavy chain region VH9 and the humanized light chain VL4 were tested, including versions of VH9 and VL4 with additional mutations (Table 5).
All SPR data were processed using the Biacore 8K Evaluation software version 1.1. Flow cell 1 and blank injections of buffer in each cycle were used as double reference for Response Units subtraction.
Table 7 provides the results of SPR assays measuring the binding of the humanized anti-amyloid antibodies to a Len(1-22) Monomer peptide. Specifically, the humanized VH9 and VL4 sequences were tested with or without additional amino acid substitutions, as indicated in the “Ligand” column of Table 7.

T7 sequence (P05067 672-711 limits assumed): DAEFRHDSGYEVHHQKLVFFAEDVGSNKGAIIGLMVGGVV

- percent bound [1]: 71%
- percent bound [2]: 31%
- percent bound [3]: 17%
- percent bound [4]: 34%
- percent bound [5]: 37%
- percent bound [6]: 10%
- percent bound [7]: 21%
- fold higher binding than murine 11-1F4 [8]: 21 fold
- EC50 [9]: 2.88 nM
- LogEC50 [9]: 8.54 -log(M)
- Max (maximal level of binding) [9]: 58.5
- EC50 [10]: 6.24 nM
- LogEC50 [10]: 8.21 -log(M)
- Max (maximal level of binding) [10]: 31.7
- EC50 [11]: 2.94 nM
- LogEC50 [11]: 8.53 -log(M)
- Max (maximal level of binding) [11]: 24
- EC50 [12]: 3.37 nM
- LogEC50 [12]: 8.47 -log(M)
- Max (maximal level of binding) [12]: 24.6
B1: murine Ig-peptide fusion Igp5 (murine 11-1F4 with peptide p5 fused to the N-terminus of the light chain) (antibody)
heavy: QVQLKESGPGLVAPSQSLSITCTVSGFSLSSYGVSWVRQPPGKGLEWLGVIWGDGSTNYHPNLMSRLSISKDISKSQVLFKLNSLQTDDTATYYCVTLDYWGQGTSVTVSS
light: AQAGQAGQAQGGGYSKAQKAQAKQAKQAQKAQKAQAKQAKQVTPTVDVVMTQTPLSLPVSLGDQASISCRSSQSLVHRNGNTYLHWYLQKPGQSPKLLIYKVSNRFSGVPDRFSGSGSGTDFTLKISRVEAEDLGLYFCFQTTYVPNTFGGGTKLEIK
notes: Antibody-peptide fusion; unlabelled in the EuLISA; also called mIgp5; mIgG-p5; not shown: murine 11-1F4 (IgG1) CH1 followed by murine IgG2a CH2-CH3 (pFUSE-mIgG2A-Fc); murine 11-1F4 kappa constant region (CL)

- percent bound [1]: 22.5%
- percent bound [13]: 20.6%
- percent bound [14]: 4.82%
- EC50 [9]: 3.49 nM
- LogEC50 [9]: 8.46 -log(M)
- Max (maximal level of binding) [9]: 65.3
- EC50 [15]: 3 nM
- fold enhancement of binding over VH6/VL3 (based on EC50) [15]: ~30 fold
- percent bound [16]: 54.9%
B2: VH6/VL3-p5 (humanized VH6/VL3 with peptide p5 fused to the N-terminal of the light chain) (antibody, V domains shown)
VH: QVQLQESGPGLVKPSETLSLTCTVSGFSLSSYGVSWVRQPPGKGLEWLGVIWGDGSTNYHPNLMSRLSISKDTSKNQFSLKLSSVTAADTATYYCVTLDYWGQGTSVTVSS
VL: DVVMTQSPLSLPVTLGQPASISCRSSQSLVHRNGNTYLHWYLQRPGQSPRLLIYKVSNRFSGVPDRFSGSGSGTDFTLKISRVEAEDVGLYFCFQTTYVPNTFGGGTKLEIK

- Max (maximal level of binding) [9]: 184
- Max (maximal level of binding) [10]: 209
- Max (maximal level of binding) [11]: ~1510
- Max (maximal level of binding) [12]: ~35100
B3: murine antibody m11-1F4 (antibody, V domains shown)
VH: QVQLKESGPGLVAPSQSLSITCTVSGFSLSSYGVSWVRQPPGKGLEWLGVIWGDGSTNYHPNLMSRLSISKDISKSQVLFKLNSLQTDDTATYYCVTLDYWGQGTSVTVSS
VL: DVVMTQTPLSLPVSLGDQASISCRSSQSLVHRNGNTYLHWYLQKPGQSPKLLIYKVSNRFSGVPDRFSGSGSGTDFTLKISRVEAEDLGLYFCFQTTYVPNTFGGGTKLEIK
notes: Murine IgG1 kappa; also called murine 11-1F4; m1-1F4

- EC50 [17]: 85 nM
- EC50 [15]: 3 nM
- fold enhancement of binding over VH6/VL3 (based on EC50) [15]: ~30 fold
B4: VH6/VL3-p5R (humanized VH6/VL3 with peptide p5R fused to the N-terminal of the light chain) (antibody, V domains shown)
VH: QVQLQESGPGLVKPSETLSLTCTVSGFSLSSYGVSWVRQPPGKGLEWLGVIWGDGSTNYHPNLMSRLSISKDTSKNQFSLKLSSVTAADTATYYCVTLDYWGQGTSVTVSS
VL: DVVMTQSPLSLPVTLGQPASISCRSSQSLVHRNGNTYLHWYLQRPGQSPRLLIYKVSNRFSGVPDRFSGSGSGTDFTLKISRVEAEDVGLYFCFQTTYVPNTFGGGTKLEIK

- percent bound [18]: 1.12%
- percent bound [1]: 22.6%
- EC50 [19]: 14 nM
- LogEC50 [19]: 7.86 -log(M)
- Max (maximal level of binding) [19]: 55.7
- EC50 [9]: 3.91 nM
- LogEC50 [9]: 8.41 -log(M)
- Max (maximal level of binding) [9]: 82.7
- percent bound [16]: 50.2%
B5: VH9/VL4-p5R (humanized VH9/VL4 with peptide p5R fused to the N-terminal of the light chain) (antibody, V domains shown)
VH: QVQLQESGPGLVKPSETLSLTCTVSGFSLSSYGVSWIRQPPGKGLEWLGVIWGDGSTNYHPNLMSRVTISVDTSKSQVLFKLSSVTAADTAVYYCATLDYWGQGTSVTVSS
VL: DVVMTQSPLSLPVTLGQPASISCRSSQSLVHRNGNTYLHWFQQRPGQSPRLLIYKVSNRFSGVPDRFSGSGSGTDFTLKISRVEAEDVGVYFCFQTTYVPNTFGGGTKLEIK

- Max (maximal level of binding) [9]: 63.9
- Max (maximal level of binding) [10]: 71.1
- Max (maximal level of binding) [11]: 51.3
- Max (maximal level of binding) [12]: ~17800
B6: chimeric (c) 11-1F4 (antibody, V domains shown)
VH: QVQLKESGPGLVAPSQSLSITCTVSGFSLSSYGVSWVRQPPGKGLEWLGVIWGDGSTNYHPNLMSRLSISKDISKSQVLFKLNSLQTDDTATYYCVTLDYWGQGTSVTVSS
VL: DVVMTQTPLSLPVSLGDQASISCRSSQSLVHRNGNTYLHWYLQKPGQSPKLLIYKVSNRFSGVPDRFSGSGSGTDFTLKISRVEAEDLGLYFCFQTTYVPNTFGGGTKLEIK
notes: also called ch11-1F4; ci1-1F4

- percent bound [18]: 1.33%
- percent bound [1]: 24.7%
- EC50 [19]: 24.5 nM
- LogEC50 [19]: 7.61 -log(M)
- Max (maximal level of binding) [19]: 58.1
- EC50 [9]: 4.05 nM
- LogEC50 [9]: 8.39 -log(M)
- Max (maximal level of binding) [9]: 71
- percent bound [16]: 54.4%
B7: VH9/VL4-p5 (humanized VH9/VL4 with peptide p5 fused to the N-terminal of the light chain) (antibody, V domains shown)
VH: QVQLQESGPGLVKPSETLSLTCTVSGFSLSSYGVSWIRQPPGKGLEWLGVIWGDGSTNYHPNLMSRVTISVDTSKSQVLFKLSSVTAADTAVYYCATLDYWGQGTSVTVSS
VL: DVVMTQSPLSLPVTLGQPASISCRSSQSLVHRNGNTYLHWFQQRPGQSPRLLIYKVSNRFSGVPDRFSGSGSGTDFTLKISRVEAEDVGVYFCFQTTYVPNTFGGGTKLEIK

- Kd [20]: 35 nM
- koff [20]: 0.00146 s⁻¹
- kon [20]: 41800 M⁻¹ s⁻¹
B8: VH9 + VL4-G34V (antibody, V domains shown)
VH: QVQLQESGPGLVKPSETLSLTCTVSGFSLSSYGVSWIRQPPGKGLEWLGVIWGDGSTNYHPNLMSRVTISVDTSKSQVLFKLSSVTAADTAVYYCATLDYWGQGTSVTVSS
VL: DVVMTQSPLSLPVTLGQPASISCRSSQSLVHRNVNTYLHWFQQRPGQSPRLLIYKVSNRFSGVPDRFSGSGSGTDFTLKISRVEAEDVGVYFCFQTTYVPNTFGGGTKLEIK
